Data on 4 molecules can be found in publication PMC6305486, “Structural Insights into the FtsQ/FtsB/FtsL Complex, a Key Component of the Divisome” (Scientific Reports, 2018).

Numbering of substitutions follows the chain as printed. Numbers in names are those of the source.

Broadly, the Kd is the concentration at which binding is half-saturated. A higher Kd goes with weaker binding.

Common to all, as to details: both partners purified
Test [1] has as its target T1, e5-FtsB_(25–103) (E. coli, UniProt P0A6S5 25-103).
T1 chain: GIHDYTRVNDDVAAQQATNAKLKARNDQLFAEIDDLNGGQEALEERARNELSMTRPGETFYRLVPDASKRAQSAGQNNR
Kind of test: SEC; analytical gel filtration, Superdex 200 10/300 GL, buffer B (20 mM Tris-HCl pH 8.0, 200 mM NaCl), 0.5 mL/min; high concentrations (101–370 μM); apparent Stokes radius compared with radii calculated from models.

In test [2] the target is T2, FtsQ_(50–276) (E. coli, UniProt P06136 50-276).
T2 construct: pET21a; also called periplasmic domain of FtsQ; WT FtsQ; source: for the complexes purified together with its partners from mixed cell pellets
The test is described as above.

Test [3] addresses T2, FtsQ_(50–276). Kind of test: BLI; BLItz; GST-fused FtsB proteins or GST-e5-FtsB/k5-FtsL complexes immobilised on AR2G biosensor by amine coupling; FtsQ_(50–276) (WT or Y248A) in solution, 0.1–80 μM; running buffer 20 mM Tris-HCl pH 8.0, 200 mM NaCl; equilibrium analysis of points at 100 s. On the technique in general: In BLI a coated tip is dipped into the sample, and binding shifts an interference pattern.

T2 sequence (P06136 50-276): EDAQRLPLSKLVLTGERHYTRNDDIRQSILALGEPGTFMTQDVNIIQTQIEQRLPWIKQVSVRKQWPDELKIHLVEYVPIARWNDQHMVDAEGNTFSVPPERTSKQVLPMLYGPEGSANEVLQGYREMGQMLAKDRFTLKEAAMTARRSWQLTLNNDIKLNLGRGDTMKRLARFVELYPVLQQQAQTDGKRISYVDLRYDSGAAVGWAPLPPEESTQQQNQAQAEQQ

B1: k5-FtsL_(64–121) (domain or fragment)
chain: TAQREQLVLERDALDIEWRNLILEENALGDHSRVERIATEKLQMQHVDPSQENIVVQK
With B1, the “stoichiometry N” value in test [1] is 1 FtsB:FtsL ratio (2:2).

B2: FtsB_(25–103) L46P (domain or fragment, E. coli, UniProt P0A6S5 25-103, looked up)
chain: T1 chain with L22P
notes: also called FtsQB L46P mutant
Consider B2, for which the binding result in test [2] was “binds”.

B3: GST-fused FtsB_(25–103) (domain or fragment, E. coli, UniProt P0A6S5 25-103, looked up)
chain: T1 chain
notes: pGST2; source: E. coli BL21 (DE3), purified (glutathione-Sepharose, gel filtration); not shown: GST, N-terminal, kept
As to B3, binding in test [3] was characterised by a dissociation constant (Kd) of 670 nM.

B4: GST-fused FtsB_(61–103) (domain or fragment, E. coli, UniProt P0A6S5 61-103, looked up)
chain: NGGQEALEERARNELSMTRPGETFYRLVPDASKRAQSAGQNNR
notes: as for B3
In test [3], B4 returned a Kd of 900 nM.
